Columns and labels:
[1] = system: FAK, Pyk2, cRaf, MEK1, Erk 1 and 2, Elk, RSK; experiment: western blot of phosphorylated intracellular signaling proteins in corneal epithelial cells; format: cell-based, human
Description: In order to investigate which protein kinase cascades are activated by GDNF and artemin, corneal epithelial cells from the cell line were seeded at a density of 5×10^5 cells/75 cm^2 and cultured in SHEM with 10% FBS for one day. Cultures were then washed with PBS and incubated in serum-free SHEM without additives or with GDNF (200 ng/ml) or with artemin (250 ng) for 10 to 40 minutes. After washing with PBS, cultured cells were solubilized in lysis buffer containing 50 mM Tris2Cl (pH8.0), 150 mM NaCl, 0.02% sodium azide, 100 μg/ml phenylmethylsulfonyl fluoride, 1 mM Na3VO4, 1% Triton X-100 and a mixture of several protease inhibitors [complete™, Boehringer Mannheim (1 tablet/30 ml buffer)]. 80 μg total protein per lane was fractionated by NuPAGE 10% SDS-MOPS-Bis-Tris gel or NuPAGE 3-8% Tris-acetate gel (all from NOVEX, San Diego, Calif.) and blotted onto a nitrocellulose membrane. Phosphorylated proteins were detected with phospho-specific antibodies and visualized with the ECL western blot analysis system (Amersham). Antibodies against phospho-Raf(ser259), phospho-MEK1/2(ser217/221), phospho-MAPK (Erk1/2) (thr202/tyr204), phospho-p90 ribosomal S6 kinase (RSK) (ser381) and phospho-Elk-1(ser383) were obtained from New England Biolabs (Beverly, Mass.). Antibody against phospho-FAK (tyr397/tyr407/tyr576/tyr577/tyr861/tyr925) and phospho-Pyk2 (tyr402/tyr579/tyr/580/tyr881) were purchased from Biosource (Camarillo, Calif., USA). A monoclonal antibody against phospho-tyrosine came from Sigma (Deisenhofen, Germany).

corneal epithelial cells = experiment: in vitro wound healing model with herbimycin A; format: cell-based; conditions: 250 ng/ml GDNF alone; 18 hours
Description: For in vitro wound healing assays primary corneal epithelial cells and cells from the corneal epithelial cell line were seeded at a density of 5×10^5 onto 60 mm plastic dishes with 2 mm grid (Sarstedt, Numbrecht, Germany) and cultured for 2 days until subconfluency. For experiments with artemin primary cultured rabbit corneal epithelial cells were used. These cells had been isolated with Dispase (1,2 U/ml) and trypsin/EDTA. Rabbit cells had been cultured in medium 500 with additives (Cascade Biologies).
The cell layer was injured under the microscope by inducing several parallel scratches with a soft plastic cell scrubber (Falcon, Becton and Dickinson, Heidelberg, Germany). The tip of the scrubber was cut and measured about 1 mm and consequently the width of the scratch in the cell layer was also about 1 mm. Selected areas in the dishes were marked with a very fine marker pen and consecutive images were taken at different time points at 5×magnification under an inverted phase contrast microscope (Axiovert 25, Zeiss, Jena, Germany) equipped with a video camera. […] For each condition four representative areas were evaluated within three dishes. […] 18 hours later the mean diameter of the same scratch was calculated again and expressed in percent of the diameter at the beginning of the experiment. […]

[2] = system: primary rabbit corneal epithelial cells; experiment: single cell clonal growth assay (colony formation, clonal proliferation); format: cell-based; conditions: D6
Description: In order to evaluate the effect of GDNF on corneal proliferation, recombinant human GDNF was used (R&D, Minneapolis, Minn., USA). For the evaluation of the effect on corneal epithelial proliferaton a single cell clonal growth model was utilized which allows to determine the effect of the given growth factor on both colony formation as well as clonal expansion (Kruse et al., 1991). New Zealand white rabbits were housed and treated according to the ARVO Resolution of Animals in Research and under observation of German Federal Laws and the laws of the State of Baden-Württemberg. Prior to sacrifice with an intravenous overdose of pentobarbital, they received an intramuscular injection of xylazine hydrochloride and ketamine hydrochloride. The details of the clonal growth assay are described in Kruse et al. (1991). 5000 viable cells were seeded in each 16 mm dish in serum-free medium MCDB 151 with a supplement (S) of insulin (5 μg/ml), transferrin (5 μg/ml), selenium (5 ng/ml) and hydrocortisone (5 μg/ml) (all from Sigma, Deisenhofen, Germany). […] This quantification was facilitated by the use of dishes which contained a grit on the bottom which is roughly 2 mm wide (from Sarstedt, Newton, N.C., USA). For data collection the entire surface area of four randomly selected dishes for each condition was screened. Furthermore, the number of cells per colony was determined in 75 randomly selected colonies for each condition. Furthermore, the total number of cells/dish was calculated in order to carry out an evaluation for artemin. In order to stimulate the cellular proliferation, GDNF (50 or 200 ng/ml) or artemin (250 ng/ml) was added to the medium. In order to estimate the rate of proliferation after 12 days (a time when neighbouring colonies started to grow into each other and, therefore, prevented numerical quantification) dishes were fixed in −20° C. methanol and stained with methylene blue.
All experiments examining the effect of GDNF on corneal proliferation were performed in triplicate with cells from different donors. The influence of growth factor on colony formation, colony size and cell number was studied using one-way analysis of variance. […] Student's t-test was employed to determine which differences were significant after analysis of variance.

Ret = target: T1, Ret (Homo sapiens, UniProt P07949); experiment: immuno-precipitation and western blot of tyrosine-phosphorylated Ret in cultured corneal epithelial cells; format: cell-based; conditions: GDNF 200 ng/ml vs serum-free control cultures
T1 construct: The level of phosphorylated Ret (approximately 150 kD) in cultured corneal epithelial cells (control) was low prior to addition of GDNF; endogenous in cells; host or cells: SV40-transformed human corneal epithelial cell line (Araki-Sasaki et al., 1995)

[3] = GDNF 200 ng/ml, within 10 minutes
[4] = GDNF 200 ng/ml, within 40 minutes

T1 sequence (P07949 29-1114): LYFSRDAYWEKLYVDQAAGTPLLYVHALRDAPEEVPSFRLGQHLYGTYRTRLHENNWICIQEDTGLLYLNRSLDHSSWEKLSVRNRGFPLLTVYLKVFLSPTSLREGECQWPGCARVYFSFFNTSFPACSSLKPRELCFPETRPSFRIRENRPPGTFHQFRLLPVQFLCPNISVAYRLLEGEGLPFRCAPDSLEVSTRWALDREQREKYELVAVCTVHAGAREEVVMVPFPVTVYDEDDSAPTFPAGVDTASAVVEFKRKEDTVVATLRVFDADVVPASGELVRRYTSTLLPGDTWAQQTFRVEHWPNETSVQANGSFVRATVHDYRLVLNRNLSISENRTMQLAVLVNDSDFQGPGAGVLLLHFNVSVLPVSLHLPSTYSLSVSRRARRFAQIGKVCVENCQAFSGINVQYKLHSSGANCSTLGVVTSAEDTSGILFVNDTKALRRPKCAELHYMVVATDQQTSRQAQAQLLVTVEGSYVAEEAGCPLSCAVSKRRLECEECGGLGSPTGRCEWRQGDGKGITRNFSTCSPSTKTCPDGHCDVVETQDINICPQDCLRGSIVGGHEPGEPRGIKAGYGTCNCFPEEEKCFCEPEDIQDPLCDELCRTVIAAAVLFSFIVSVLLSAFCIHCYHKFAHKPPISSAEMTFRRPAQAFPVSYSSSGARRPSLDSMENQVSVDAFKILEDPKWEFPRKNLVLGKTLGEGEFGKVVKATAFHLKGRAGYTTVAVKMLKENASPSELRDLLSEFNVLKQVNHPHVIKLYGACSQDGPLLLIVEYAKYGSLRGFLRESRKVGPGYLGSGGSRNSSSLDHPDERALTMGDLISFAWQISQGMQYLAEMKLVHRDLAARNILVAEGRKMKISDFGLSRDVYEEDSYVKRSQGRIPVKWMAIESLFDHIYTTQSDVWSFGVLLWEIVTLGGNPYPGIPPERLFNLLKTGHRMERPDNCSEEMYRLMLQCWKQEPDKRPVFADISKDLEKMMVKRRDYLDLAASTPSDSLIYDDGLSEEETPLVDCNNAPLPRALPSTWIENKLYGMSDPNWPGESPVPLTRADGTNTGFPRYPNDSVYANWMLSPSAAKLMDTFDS

B1: GDNF: recombinant human GDNF having the amino acid sequence of human wild-type GDNF (GenBank L19063, L15306) (protein)
chain: SPDKQMAVLPRRERNRQAAAANPENSRGKGRRGQRGKNRGCVLTAIHLNVTDLGLGYETKEELIFRYCSGSCDAAETTYDKILKNLSRNRRLVSDKVGQACCRPIAFDDDLSFLDDNLVYHILRKHSAKRCGCI
Q: B1 was tested. Which “serine phosphorylation of Elk” value [1, 3] did it give?
A: significantly induced

Q: And the “serine phosphorylation of MEK1” value [1, 3]?
A: significantly induced

Q: And the “serine phosphorylation of cRaf” value [1, 3]?
A: significantly induced

Q: And the “tyrosine/threonine phosphorylation of Erk 1 and 2” value [1, 3]?
A: significantly induced

Q: And the “phosphorylation of Pyk2” value [1, 4]?
A: phosphorylated

Q: What about the “tyrosine phosphorylation of FAK” value [1, 4] of the same molecule?
A: gradually increased

Q: What about the “phosphorylation of RSK” value ([1]; in response to GDNF) of the same molecule?
A: not detectable

Q: What about the “wound gap filled with cells” value (corneal epithelial cells) of the same molecule?
A: 37.9±8.1%

Q: And the “numbers of colonies per dish” value ([2]; GDNF 50 ng (p<0,05) and 200 ng (p<0.0001), serum-free MCDB)?
A: increased significantly

Q: And the “clonal proliferation (number of cells within each colony)” value ([2]; GDNF 50 and 200 ng/ml, p<0.01)?
A: significantly stimulated

Q: What about the “time to induction of tyrosine phosphorylation of Ret” value (Ret) of the same molecule?
A: ≤ 5 min
